# Data reported in patent US20200405879A1 (published 2020).
# T1: CD19 (human, UniProt P15391 20-556)
# T1 sequence (looked up): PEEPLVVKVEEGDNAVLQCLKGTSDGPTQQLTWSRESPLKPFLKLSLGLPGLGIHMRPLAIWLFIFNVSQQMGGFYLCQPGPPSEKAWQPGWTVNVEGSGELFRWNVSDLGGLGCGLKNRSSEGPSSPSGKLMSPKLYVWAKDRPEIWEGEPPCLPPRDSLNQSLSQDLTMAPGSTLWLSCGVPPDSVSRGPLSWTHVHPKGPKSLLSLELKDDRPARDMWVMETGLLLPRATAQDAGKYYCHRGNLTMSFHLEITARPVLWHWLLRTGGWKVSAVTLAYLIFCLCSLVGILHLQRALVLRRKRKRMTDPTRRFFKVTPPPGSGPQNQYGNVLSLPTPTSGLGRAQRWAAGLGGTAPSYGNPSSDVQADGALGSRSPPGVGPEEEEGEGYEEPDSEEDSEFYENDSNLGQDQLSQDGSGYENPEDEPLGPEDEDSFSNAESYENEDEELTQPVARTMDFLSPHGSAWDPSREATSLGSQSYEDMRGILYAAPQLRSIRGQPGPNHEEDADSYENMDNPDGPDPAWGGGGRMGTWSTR
# B1: ADCx22 (antibody, human IgG1, kappa, V domains shown)
# VH: QVQLVQSGAEVKKPGSSVKVSCKASGYTFTSYWLHWVRQAPGQGLEWIGYINPRNDYTEYNQNFKDKATITADESTNTAYMELSSLRSEDTAFYFCARRDITTFYWGQGTLVTVSS
# VL: DIQLTQSPSSLSASVGDRVTMSCKSSQSVLYSANHKNYLAWYQQKPGKAPKLLIYWASTRESGVPSRFSGSGSGTDFTFTISSLQPEDIATYYCHQYLSSWTFGQGTKVEIKR
# modifications: PBD drug-linker on heavy chain interchain cysteine Cys220 (EU numbering) = position 219 of SEQ ID NO. 15
# B2: ADCx19 (antibody, V domains shown)
# VH: QVQLVQPGAEVVKPGASVKLSCKTSGYTFTSNWMHWVKQAPGQGLEWIGEIDPSDSYTNYNQNFQGKAKLTVDKSTSTAYMEVSSLRSDDTAVYYCARGSNPYYYAMDYWGQGTSVTVS
# VL: EIVLTQSPAIMSASPGERVTMTCSASSGVNYMHWYQQKPGTSPRRWIYDTSKLASGVPARFSGSGSGTSYSLTISSMEPEDAATYYCHQRGSYTFGGGTKLEIK
# modifications: pyrrolobenzodiazepine (PBD) dimer warhead attached to the antibody via a cleavable linker; DAR 2+/-0.3; attachment residues not stated
# Assays:
# CD22 = CD22 (human, UniProt P20273 20-847); experiment: cell-based or functional assay; set-up: unit not given beside the values
# CD19 = target: T1, CD19; experiment: cell-based or functional assay; set-up: unit not given beside the values
Binder,"EC50, in vitro cytotoxicity (MTS cell viability) on Ramos cells, 4 days (CD22)","EC50, in vitro cytotoxicity (MTS cell viability) on Ramos cells, 4 days (CD19)"
B1,0.0133,
B2,,0.000239
